PMC5079630
Blank lines part the entries; values can stand above or below the substance they belong to.

Experiments:
STAT2 N domain (human) = STAT2 N domain (human) (UniProt P52630); experiment: AUC; sedimentation equilibrium of one N domain alone; homodimer to monomers; concentrations not given
STAT1 N domain [1] = biological target: STAT1 N domain (UniProt P42224); experiment: AUC; sedimentation equilibrium; STAT1 N domain and mEGFP-tagged STAT2 N domain at final equimolar concentrations of 2.5, 10 and 40 uM; heterodimer to monomers
STAT1 N domain [2] = biological target: STAT1 N domain (UniProt P42224); experiment: AUC; sedimentation equilibrium of one N domain alone; homodimer to monomers; concentrations not given
[3] = test system: STAT1 (Tyr701-phosphorylated; GAF) (human (U6A cells)); experiment: EMSA; conditions: Combined cytoplasmic and nuclear extracts of U6A cells (IFN-beta 500 U/ml or IFN-gamma 50 U/ml, 1 h), normalized for pY701-STAT1; 10 nM dsDNA probe; buffer …
importin-α5 = importin-α5 (UniProt P52294); experiment: anti-FLAG co-immunoprecipitation, immunoblot; conditions: reference: STAT1-YFP wild type; sites Y701

Sequence of STAT1 N domain (P42224 whole entry): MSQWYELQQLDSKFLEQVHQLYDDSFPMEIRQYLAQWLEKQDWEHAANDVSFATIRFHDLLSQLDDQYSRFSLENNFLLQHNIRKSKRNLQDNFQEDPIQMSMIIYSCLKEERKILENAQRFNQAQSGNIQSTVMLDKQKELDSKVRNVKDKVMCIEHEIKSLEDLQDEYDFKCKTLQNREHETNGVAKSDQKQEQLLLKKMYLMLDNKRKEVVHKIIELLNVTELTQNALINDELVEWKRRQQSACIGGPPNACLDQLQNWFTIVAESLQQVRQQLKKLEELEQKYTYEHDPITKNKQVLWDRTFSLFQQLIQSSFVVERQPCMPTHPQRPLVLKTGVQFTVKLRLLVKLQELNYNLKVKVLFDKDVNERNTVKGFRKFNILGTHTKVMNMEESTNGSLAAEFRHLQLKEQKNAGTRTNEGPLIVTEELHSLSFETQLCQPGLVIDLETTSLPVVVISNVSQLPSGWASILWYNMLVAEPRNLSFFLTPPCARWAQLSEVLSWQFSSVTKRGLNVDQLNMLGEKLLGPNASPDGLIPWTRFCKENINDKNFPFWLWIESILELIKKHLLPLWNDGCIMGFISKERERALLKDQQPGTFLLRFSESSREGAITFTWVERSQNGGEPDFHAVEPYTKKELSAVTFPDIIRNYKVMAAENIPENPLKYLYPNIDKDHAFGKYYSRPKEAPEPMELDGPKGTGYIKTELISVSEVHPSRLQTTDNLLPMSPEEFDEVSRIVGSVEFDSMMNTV

Substance: STAT2 N domain (from UniProt P52630 1-851) (domain or fragment)
Kd (STAT2 N domain (human)): 704 µM
Kd (STAT1 N domain [1]): 0.01 µM

Substance: STAT1 N domain (from UniProt P42224 1-750) (domain or fragment)
Kd (STAT1 N domain [2]): 16.6 µM

Substance: GAS (M67) probe
binding signal (% of GAF activity without STAT2) [3]: 25

Second part, the substance after the results:

Kd (STAT1 N domain [1]): 5480 µM
Substance: STAT2 N domain LL81,82AA (from UniProt P52630 1-851) (domain or fragment)

binding against the reference (importin-α5): lost
Substance: STAT1 (from UniProt P42224) STAT1-YFP Y701F
